In paper PMC8809517, “Cofactor-independent RNA editing by a synthetic S-type PPR protein”:

Columns and labels:
Assay in all cases: high-throughput RNA pulldown from lysate on Ni-NTA beads; HRP: 50 mM Tris pH 8, 150 mM NaCl, 1 mM beta-mercaptoethanol, 50 ug/ml BSA, 3 ug/ml yeast RNA, 0.5% heparin; ITC and FP: Tris pH 8, 200 mM KCl, 5% glycerol; MST: 50 mM Tris pH 8, 200 mM NaCl, 1 mM DTT, BSA, heparin, 0.05% Tween 20
Settings in all cases: tags: N-terminal His-eGFP
[1] = target: T1, GFP-9S library array, motif 4 ND N98S;D124Q (synthetic construct, N98S;D124Q)
T1 chain: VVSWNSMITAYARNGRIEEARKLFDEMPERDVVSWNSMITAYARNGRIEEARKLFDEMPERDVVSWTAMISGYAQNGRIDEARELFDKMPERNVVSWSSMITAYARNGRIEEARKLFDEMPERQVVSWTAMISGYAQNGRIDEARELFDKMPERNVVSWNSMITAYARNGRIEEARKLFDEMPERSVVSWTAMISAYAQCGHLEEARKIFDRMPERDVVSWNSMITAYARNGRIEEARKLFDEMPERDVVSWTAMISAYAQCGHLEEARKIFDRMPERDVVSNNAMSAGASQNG

[2] = target: T2, GFP-9S library array, motif 4 ND N98V;D124L (synthetic construct, N98V;D124L)
T2 chain: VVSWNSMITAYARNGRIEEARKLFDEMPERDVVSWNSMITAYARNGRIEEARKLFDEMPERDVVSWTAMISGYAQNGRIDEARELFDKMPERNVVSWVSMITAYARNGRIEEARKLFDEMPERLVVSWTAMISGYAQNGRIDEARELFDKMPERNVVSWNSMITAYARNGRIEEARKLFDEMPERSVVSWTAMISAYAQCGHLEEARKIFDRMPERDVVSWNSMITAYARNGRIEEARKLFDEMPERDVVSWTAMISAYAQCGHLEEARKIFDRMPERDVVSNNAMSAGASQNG

[3] = target: T3, GFP-9S library array, motif 4 ND N98T;D124N (synthetic construct, N98T;D124N)
T3 chain: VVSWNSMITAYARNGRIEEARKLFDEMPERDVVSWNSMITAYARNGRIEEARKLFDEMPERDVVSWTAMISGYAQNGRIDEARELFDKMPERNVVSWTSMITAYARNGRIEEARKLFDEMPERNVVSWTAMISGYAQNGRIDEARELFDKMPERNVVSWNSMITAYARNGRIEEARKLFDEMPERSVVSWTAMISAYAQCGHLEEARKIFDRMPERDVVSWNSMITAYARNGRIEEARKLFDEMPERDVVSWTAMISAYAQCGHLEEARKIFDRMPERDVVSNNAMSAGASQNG

[4] = target: T4, GFP-9S library array, motif 4 ND N98K (synthetic construct, N98K)
T4 chain: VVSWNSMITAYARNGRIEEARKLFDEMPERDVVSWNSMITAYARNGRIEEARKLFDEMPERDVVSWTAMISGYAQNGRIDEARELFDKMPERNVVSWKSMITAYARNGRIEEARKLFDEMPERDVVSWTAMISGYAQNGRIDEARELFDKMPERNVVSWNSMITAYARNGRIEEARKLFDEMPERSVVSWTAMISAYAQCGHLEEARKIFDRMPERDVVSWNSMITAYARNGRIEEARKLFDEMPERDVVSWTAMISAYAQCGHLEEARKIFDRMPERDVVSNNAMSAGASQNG

[5] = target: T5, GFP-9S library array, motif 4 ND N98F;D124H (synthetic construct, N98F;D124H)
T5 chain: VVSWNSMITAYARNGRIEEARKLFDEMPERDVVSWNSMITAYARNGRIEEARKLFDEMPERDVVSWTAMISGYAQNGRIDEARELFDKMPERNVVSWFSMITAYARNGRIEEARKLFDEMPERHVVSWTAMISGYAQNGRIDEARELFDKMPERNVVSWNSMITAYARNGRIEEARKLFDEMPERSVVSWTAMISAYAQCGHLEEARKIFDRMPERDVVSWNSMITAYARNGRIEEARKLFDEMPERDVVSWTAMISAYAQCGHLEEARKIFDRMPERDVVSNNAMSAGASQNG

Binder | Kd ([1]; label: 5' IRDye 800CW) [nM] | Kd ([2]; label: 5' IRDye 800CW) [nM] | Kd ([3]; label: 5' IRDye 800CW) [nM] | Kd ([4]; label: 5' IRDye 800CW) [nM] | Kd ([5]; label: 5' IRDye 800CW) [nM] | Kd ([1]; label: 5' Cy5) [nM] | Kd ([2]; label: 5' Cy5) [nM] | Kd ([3]; label: 5' Cy5) [nM] | Kd ([4]; label: 5' Cy5) [nM] | Kd ([5]; label: 5' Cy5) [nM]
AUUAAACGUGA (ssRNA) [IR-rpoA-A] | 40.3 | 199 | 8.35 | 409 | 188 | – | – | – | – | –
AUUACACGUGA (ssRNA) [Cy5-rpoA] | – | – | – | – | – | 95.2 | 88.5 | 59.8 | 189 | 73.4
AUUAGACGUGA (ssRNA) [Cy5-rpoA-G] | – | – | – | – | – | 39.2 | 112 | 59 | 315 | 84.9
AUUAUACGUGA (ssRNA) [IR-rpoA-U] | 179 | 126 | 53.3 | 279 | 138 | – | – | – | – | –
